{"source": "paper PMC12118636", "key": {"[1]": {"target": "hNaV1.9 IQ domain peptide (human)", "assay": "ITC"}, "[2]": {"target": "hNaV1.9 IQ domain peptide (human)", "assay": "ITC", "remark": "listed apart in the source"}}, "note": "Like-named read-outs stand apart in the source and are kept apart here.", "data": [{"substance": "Human calmodulin (from UniProt P0DP23 1-149) (natural protein)", "values": [{"measurement": "Kd", "setting": "[1]", "value": 480, "unit": "µM"}, {"measurement": "Kd", "setting": "[2]", "value": 37, "unit": "µM"}]}]}
